Measured values taken from patent publication US20130324409A1 (University of California, published 2013).
Numbering of substitutions follows the chain as printed. In names and notes the source's numbering stands.

Assays:
[1] = molecular target: T1, PYL4 6×His-tagged protein
T1 chain: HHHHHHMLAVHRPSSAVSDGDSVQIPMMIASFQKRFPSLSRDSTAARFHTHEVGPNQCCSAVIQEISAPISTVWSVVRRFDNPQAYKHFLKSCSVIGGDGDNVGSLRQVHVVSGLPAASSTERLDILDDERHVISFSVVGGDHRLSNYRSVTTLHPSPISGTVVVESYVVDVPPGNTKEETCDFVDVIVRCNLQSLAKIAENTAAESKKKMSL

GST-HAB1 = molecular target: T2, GST-HAB1 (Arabidopsis, UniProt Q9CAJ0 23-511); test: cell-based or functional assay
T2 sequence (looked up): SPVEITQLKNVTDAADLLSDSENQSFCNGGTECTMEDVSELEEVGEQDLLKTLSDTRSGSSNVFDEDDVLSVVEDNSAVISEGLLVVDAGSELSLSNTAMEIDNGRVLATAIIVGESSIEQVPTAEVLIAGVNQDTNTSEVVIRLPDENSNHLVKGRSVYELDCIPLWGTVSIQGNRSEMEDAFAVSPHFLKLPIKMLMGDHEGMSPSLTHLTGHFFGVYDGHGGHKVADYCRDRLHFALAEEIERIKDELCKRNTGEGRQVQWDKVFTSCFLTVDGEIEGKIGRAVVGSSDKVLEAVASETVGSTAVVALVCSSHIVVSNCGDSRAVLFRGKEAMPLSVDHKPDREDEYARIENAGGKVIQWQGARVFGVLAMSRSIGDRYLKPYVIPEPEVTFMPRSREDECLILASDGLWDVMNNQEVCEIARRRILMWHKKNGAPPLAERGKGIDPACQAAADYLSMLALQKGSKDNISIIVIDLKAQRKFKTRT

GST-ABI2 = molecular target: T3, GST-ABI2 (UniProt O04719 1-423); test: His-tag pull-down, E. coli lysate holding the PP2C
T3 construct: Used as cleared E. coli lysate in the pull-downs; not shown: glutathione S-transferase (GST)
T3 sequence (looked up): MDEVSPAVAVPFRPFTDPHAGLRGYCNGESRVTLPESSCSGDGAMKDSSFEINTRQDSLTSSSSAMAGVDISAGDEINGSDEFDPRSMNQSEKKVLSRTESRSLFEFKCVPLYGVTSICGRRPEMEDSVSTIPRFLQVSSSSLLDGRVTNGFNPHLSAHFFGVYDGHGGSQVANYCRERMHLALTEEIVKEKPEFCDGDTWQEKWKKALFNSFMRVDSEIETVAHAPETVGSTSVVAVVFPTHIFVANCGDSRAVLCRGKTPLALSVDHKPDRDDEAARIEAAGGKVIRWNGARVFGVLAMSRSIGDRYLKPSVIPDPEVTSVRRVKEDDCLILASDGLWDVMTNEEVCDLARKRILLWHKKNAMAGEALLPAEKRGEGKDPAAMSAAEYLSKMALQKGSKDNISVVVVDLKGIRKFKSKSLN
Procedure: (§1) To explore the functional implications of the PYR1-PP2C interaction, we examined if an ABA response could be reconstituted in vitro. Recombinant GST-HAB1, GST-ABI1 and GST-ABI2 were expressed in E. coli and tested for ligand-dependent interactions with 6×His-PYR1 in pull-down assays. Purified 6×His-PYR1 and GST-HAB1 (20 and 100 μg respectively, 8 μM PYR1 final concentration), were combined in 100 μl TBS containing 10 μM (+)-ABA or 1% DMSO for negative control. The reaction was incubated for 90 minutes at RT and 5 μl of PrepEase (USB) His-tagged protein purification resin was added. The resin and reaction mixture was incubated 30 min at RT with gentle shaking at 5 min intervals. The resin was washed five times with TBS containing 10 μM (+)-ABA. After the final wash, the bound protein was eluted in 20 μl SDS-PAGE buffer, boiled for 5 minutes and centrifuged. 5 μl of eluate was analyzed on SDS-PAGE. For pull-downs with ABI1 and ABI2, crude lysates were used in a similar method, except purified PP2C was replaced with cleared E. coli lysates. The amount of lysate added was determined by SDS-page analysis to yield ˜100 μg PP2C, such that the same stoichiometry was used as in assays using purified proteins.

GST-ABI1 = molecular target: T4, GST-ABI1 (UniProt P49597 1-434); test: His-tag pull-down, E. coli lysate holding the PP2C
T4 construct: Used as cleared E. coli lysate in the pull-downs; not shown: glutathione S-transferase (GST)
T4 sequence (looked up): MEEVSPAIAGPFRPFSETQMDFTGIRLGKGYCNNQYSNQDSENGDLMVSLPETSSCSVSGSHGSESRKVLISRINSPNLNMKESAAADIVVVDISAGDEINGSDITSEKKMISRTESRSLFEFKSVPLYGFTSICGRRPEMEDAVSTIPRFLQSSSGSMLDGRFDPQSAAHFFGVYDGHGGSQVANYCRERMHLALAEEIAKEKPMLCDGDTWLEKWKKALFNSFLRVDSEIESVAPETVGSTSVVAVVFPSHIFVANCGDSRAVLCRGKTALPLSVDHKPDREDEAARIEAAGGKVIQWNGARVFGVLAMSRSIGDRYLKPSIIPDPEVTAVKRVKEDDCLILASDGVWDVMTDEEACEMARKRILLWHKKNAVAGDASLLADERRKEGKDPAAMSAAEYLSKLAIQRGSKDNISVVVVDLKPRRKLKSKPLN
Procedure: as §1

[2] = molecular target: T5, ABI2 (yeast two-hybrid construct) (UniProt O04719 1-423); test: yeast two-hybrid
T5 construct: also called wild type ABI2; cDNA U24491
T5 sequence (looked up): T3 sequence (looked up)

[3] = molecular target: T6, ABI2^G168D encoded by abi2-1 (yeast two-hybrid construct) (UniProt O04719 1-423); test: yeast two-hybrid
T6 construct: ABA insensitive mutant protein; also called mutant protein encoded by abi2-1
T6 sequence (looked up): T3 sequence (looked up) with G168D

[4] = molecular target: T7, ABI1 (yeast two-hybrid construct) (UniProt P49597 1-434); test: yeast two-hybrid
T7 construct: also called wild type ABI1; cDNA C104649
T7 sequence (looked up): T4 sequence (looked up)

B1: GST-HAB1 (protein)
chain: T2 sequence (looked up)
HAB1 phosphatase activity (substrate pNPP) [1]: (+)-ABA inhibits HAB1 phosphatase activity in the presence of PYL4

B2: 6×His-PYR1 (receptor, not shown: small tags and cut ends)
chain: MPSELTPEERSELKNSIAEFHTYQLDPGSCSSLHAQRIHAPPELVWSIVRRFDKPQTYKHFIKSCSVEQNFEMRVGCTRDVIVISGLPANTSTERLDILDDERRVTGFSIIGGEHRLTNYKSVTTVHRFEKENRIWTVVLESYVVDMPEGNSEDDTRMFADTVVKLNLQKLATVAEAMARNSGDGSGSQVT
IC50 of (+)-ABA for inhibition of HAB1 phosphatase activity (substrate pNPP) in the presence of PYR1 (GST-HAB1): 0.18 µM

B3: 6×His-PYR1^P88S (receptor)
chain: B2 chain with P88S
notes: also called pyr1-3 mutant protein; not shown: 6×His tag and vector residues of pET28
binding result (GST-ABI2): no binding (tested: 10 µM (+)-ABA)
binding result (GST-ABI1): no binding (tested: 10 µM (+)-ABA)

B4: BD-PYR1 fusion protein (receptor, not shown: large carriers; small tags and cut ends)
chain: B2 chain
notes: Pyr1 open reading frame cloned in frame into pBD-GAL4 Cam, expressed in yeast Y190; also called PYR1 Y2H bait construct; PYRABACTIN … 1
binding result [2]: binds
binding result [3]: no binding
binding result [4]: binds
